From article PMC9023295, “NMR-derived secondary structure of the full-length Ox40 mRNA 3′UTR and its multivalent binding to the immunoregulatory RBP Roquin” (Nucleic Acids Research, 2022)

What was measured:
Roquin-1 extROQ [1] = molecular target: T1, Roquin-1 extROQ (mouse, UniProt Q4VGL6 89-404); assay: EMSA; conditions: EMSA: 150 mM NaCl, 20 mM Tris pH 7.0, 2 mM TCEP, 1 mM MgCl2, 0.6 ug yeast tRNAPhe per 20 ul, 15 min, temperature not stated, gel in 1x TB
T1 sequence: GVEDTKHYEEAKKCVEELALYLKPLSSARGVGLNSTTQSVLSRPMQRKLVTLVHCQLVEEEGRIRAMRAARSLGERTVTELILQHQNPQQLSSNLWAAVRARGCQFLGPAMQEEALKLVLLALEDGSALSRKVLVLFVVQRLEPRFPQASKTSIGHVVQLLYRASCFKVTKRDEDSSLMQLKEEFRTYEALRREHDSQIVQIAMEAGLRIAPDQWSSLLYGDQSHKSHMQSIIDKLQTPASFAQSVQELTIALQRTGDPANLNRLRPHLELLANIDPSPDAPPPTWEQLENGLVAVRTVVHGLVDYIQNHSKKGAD

Roquin-1 coreROQ [2] = molecular target: T2, Roquin-1 coreROQ (mouse, UniProt Q4VGL6 171-326); assay: EMSA; conditions: EMSA: 150 mM NaCl, 20 mM Tris pH 7.0, 2 mM TCEP, 1 mM MgCl2, 0.6 ug yeast tRNAPhe per 20 ul, 15 min, temperature not stated, gel in 1x TB
T2 sequence: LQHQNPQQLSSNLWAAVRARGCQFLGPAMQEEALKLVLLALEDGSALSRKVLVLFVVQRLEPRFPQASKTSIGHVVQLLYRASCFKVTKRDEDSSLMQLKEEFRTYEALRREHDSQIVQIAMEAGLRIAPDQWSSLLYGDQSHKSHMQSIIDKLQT

Roquin-1 N-term (mouse) = assay: EMSA; conditions: first binding event; EMSA: 150 mM NaCl, 20 mM Tris pH 7.0, 2 mM TCEP, 1 mM MgCl2, 0.6 ug yeast tRNAPhe per 20 ul, 15 min; temperature not stated; gel in 1x TB
[3] = system: Roquin-1 N-term A-site mutant (Amut) (mouse); assay: EMSA; conditions: EMSA: 150 mM NaCl, 20 mM Tris pH 7.0, 2 mM TCEP, 1 mM MgCl2, 0.6 ug yeast tRNAPhe per 20 ul, 15 min; temperature not stated; gel in 1x TB
Roquin-1 extROQ [4] = molecular target: T1, Roquin-1 extROQ; assay: EMSA; single binding event; EMSA: 150 mM NaCl, 20 mM Tris pH 7.0, 2 mM TCEP, 1 mM MgCl2, 0.6 ug yeast tRNAPhe per 20 ul, 15 min; temperature not stated; gel in 1x TB; conditions: protein: recombinant, tags: tag removed by TEV, label: 5' 32P
Roquin-1 extROQ [5] = molecular target: T1, Roquin-1 extROQ; assay: EMSA; triplicate; EMSA: 150 mM NaCl, 20 mM Tris pH 7.0, 2 mM TCEP, 1 mM MgCl2, 0.6 ug yeast tRNAPhe per 20 ul, 15 min; temperature not stated; gel in 1x TB; conditions: protein: recombinant; tags: tag removed by TEV; label: 5' 32P (EMSA); hairpin, apical hexaloop
Roquin-1 coreROQ [6] = molecular target: T2, Roquin-1 coreROQ; assay: as above; conditions: protein: recombinant; tags: tag removed by TEV; label: 5' 32P (EMSA); hairpin, apical hexaloop
Roquin-1 extROQ [7] = molecular target: T1, Roquin-1 extROQ; assay: EMSA; 2:1 stoichiometry; EMSA: 150 mM NaCl, 20 mM Tris pH 7.0, 2 mM TCEP, 1 mM MgCl2, 0.6 ug yeast tRNAPhe per 20 ul, 15 min; temperature not stated; gel in 1x TB; conditions: protein: recombinant; tags: tag removed by TEV; label: 5' 32P (EMSA)
Roquin-1 extROQ [8] = molecular target: T1, Roquin-1 extROQ; assay: EMSA; two-step, comparable to WT ADE-CDE; EMSA: 150 mM NaCl, 20 mM Tris pH 7.0, 2 mM TCEP, 1 mM MgCl2, 0.6 ug yeast tRNAPhe per 20 ul, 15 min; temperature not stated; gel in 1x TB; conditions: protein: recombinant; tags: tag removed by TEV; label: 5' 32P; two hairpins
[9] = molecular target: the molecule itself; assay: SAXS; protein alone, concentration series 50, 100, 200, 300 uM; 150 mM NaCl, 20 mM Tris pH 7.0, 2 mM TCEP; 293 K; molecular weight by the Bayesian approach; monomer to dimer

Ox40 CDE
Kd (Roquin-1 extROQ [1]; triplicate): 149 nM | Kd (Roquin-1 coreROQ [2]; triplicate): 460 nM

Ox40 tandem ADE-CDE
Kd (Roquin-1 N-term (mouse)): 78 nM | Kd [3]: 593 nM | Kd (Roquin-1 extROQ [1]; first binding event): 59 nM | Kd (Roquin-1 extROQ [1]; second binding event): 180 nM | Kd (Roquin-1 coreROQ [2]; transitions not resolved): 379 nM

GUAUUUAUGAUUUCCUAUGUAUGCUAUGCAUACUAC (structured_RNA) [extCDE]
Kd (Roquin-1 extROQ [4]; 5' single strand plus hairpin): ~50 nM

GCCUGCCAGUACCCUCCACACCGUUCUAGGUGCUGGGCUGGCUCUGGGC (structured_RNA) [Ox40 ADE]
Kd (Roquin-1 extROQ [5]): 171 ± 17 nM | Kd (Roquin-1 coreROQ [6]): 232 ± 29 nM

B1: Ox40 full-length 3'UTR (structured_RNA)
RNA: GCAUUACUACAGGAGUGGAUUUUAUGGGGCACGGACAACCCAUAUCCUGAUGCCUGCCAGUACCCUCCACACCGUUCUAGGUGCUGGGCUGGCUCUGGGCUUUCCUAUGUAUGCUAUGCAUACUACCUGCCUGGUGGUGCUCCUAAUAAACAUGCUA
Kd (Roquin-1 extROQ [7]): 63 ± 9 nM

B2: ADE-u-CDE (structured_RNA)
RNA: GCCUGCCAGUACCCUCCACACCGUUCUAGGUGCUGGGCUGGCUCUGGGCUGUAUGCUAUGCAUACUAC
binding result (Roquin-1 extROQ [8]): binds

B3: Bulge-CDE (structured_RNA)
RNA: GGAUUUUAUGGGGCACGGACAACCCAUAUCCUGAUUUUCCUAUGUAUGCUAUGCAUACUAC
Kd (Roquin-1 extROQ [4]): ~70.7 nM

B4: Roquin-1 amino-terminal part (N-term, residues 1-454) (domain or fragment, murine, UniProt Q4VGL6 1-454, looked up)
chain: MPVQAPQWTDFLSCPICTQTFDETIRKPISLGCGHTVCKMCLNKLHRKACPFDQTTINTDIELLPVNSALLQLVGAQIPEQQPITLCSGVEDTKHYEEAKKCVEELALYLKPLSSARGVGLNSTTQSVLSRPMQRKLVTLVHCQLVEEEGRIRAMRAARSLGERTVTELILQHQNPQQLSSNLWAAVRARGCQFLGPAMQEEALKLVLLALEDGSALSRKVLVLFVVQRLEPRFPQASKTSIGHVVQLLYRASCFKVTKRDEDSSLMQLKEEFRTYEALRREHDSQIVQIAMEAGLRIAPDQWSSLLYGDQSHKSHMQSIIDKLQTPASFAQSVQELTIALQRTGDPANLNRLRPHLELLANIDPSPDAPPPTWEQLENGLVAVRTVVHGLVDYIQNHSKKGADQQQPPQHSKYKTYMCRDMKQRGGCPRGASCTFAHSQEELEKFRKMNKRLV
notes: Roquin-1, murine, structured amino-terminal part with RING, ROQ and ZnF domains, residues 1-454 (theoretical MW 51.09 kDa); also called Roquin N-term; WT N-term; source: E. coli BL21 (DE3), expressed with 100 uM ZnCl2, purified (Ni-NTA, TEV cleavage, reverse Ni-NTA, SEC)
binding result [9]: binds
